# Measured values from the nanobody polyreactivity screen of Harvey et al. (2022).
# Experiment: yeast display, Sf9 membrane polyspecificity reagent, FACS + sequencing; frameworks hold sequencing errors
# How it was run: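 Genes from sorted yeast were amplified by colony PCR, read by MiSeq 2 × 250 sequencing and filtered on CDR length. These cells carried a synthetic nanobody library in Saccharomyces cerevisiae BJ5465 and were sorted by FACS into low and high (top ~1%) gates on anti-HA and streptavidin fluorescence. Polyreactivity is labelled according to the gate of origin.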
row,Sequence,polyreactivity (PSR sort gate)
1,QVQLVESGGGLVQAGGSLRLRCAASGGIFGFYAMGWYRQAPGKERELVAAISWGGGSTYYADSVKGRFTIARDNAKNTVFVQMNSLKPEDTAVYYCAADPALTKEYGYWGQGTQVTVSS,low polyreactivity
2,QVQLVESGGGLVQAGGSLRLRCAASGGIFTNNAKGWYRQAPGKERELVAAITGSGASTYYADSVKARFTISRDNAKNSVYLHLNSLKPEDTAVYYCNTDSPYGWEGEFDYWGLGTQVTVSS,high polyreactivity
3,QVQLVESGGGLVQAGGSLRLRCAASGGTFGVNAMGWYRQAPGKERELVAAISSSGGRTYYADSVKGRFTISRDNAKNTVYLQMNSLKPEDTAVYYCAARNYFWGQGTQVTVSS,low polyreactivity
4,QVQLVESGGGLVQAGGSLRLRCAASGIIFEYYAMGWYRQAPGKERELVAAITWNGGRTYYADSVKGRFTISRDNAKNTVYLQINSLKPEDTAVYYCAALTYYRDYWGLGTQVTVSS,high polyreactivity
5,QVQLVESGGGLVQAGGSLRLRCAASGIIFRGYAMGWYRPAPGKERELVAGITSGGDTNYADSVKGRFTISRDNAKNTVYVQMNSMNPEDTEGYYCATSDRRYRGRHYPFYKFDYWGQGPQVTVSS,low polyreactivity
6,QVQLVESGGGLVQAGGSLRLRCAASGIIFYRYAMGWYRQAPGKERELVAAINTSGGRTYYADSVKGRFTISRDNAKNTVYLQMNSLKPEDTAVYYCAAYYSPVGFQYDYWGQGTQVTVSS,high polyreactivity
7,QVQLVESGGGLVQAGGSLRLRCAASGITFPNYAMGWYRQAPGKERELVAAISSGGSTTYADSVKGRFTISRDNAKNTVYLQMNSLKPEDTAVYYCNADISAHYVIGVPTGYYWGQGTQVTVSS,low polyreactivity
8,QVQLVESGGGLVQAGGSLRLRCAASGLIFARNAMGWYRHAPGKERELVAAISRRGGSTYYADSVKGRFTISRDNAKNTVYLQMNSLKPEDTAVYYCAADTPYWQSSKYDYWGQGTQVTVSS,high polyreactivity
9,QVQLVESGGGLVQAGGSLRLRCAASGLIFYVYAMGWYRQAPGKERELVAAISYRGGSTYADSVKGRFTISRDNAKNTVYLQMNSLKPEDTAVYYCAAQRWYVYGLKYHYGYWGQGTQVTVSS,high polyreactivity
10,QVQLVESGGGLVQAGGSLRLRCAASGNTFAYYAMGWYRQAPGKERELVASITGSGTSTYYADSVKGRFTISRDNEKNTVYLQMNSLKPEDTAVYYCAKRYYYKWFGYWGQGTQVTVSS,high polyreactivity
11,QVQLVESGGGLVQAGGSLRLRCAASGNTFRVYPMGWYRQAPGKESELVAAITWSGSRTYYADSVKGRFTISRDNAKNTVYFQINSLKPEDTAVYYCAARFVRAAYNYWGLGTQVTVSS,high polyreactivity
12,QVQLVESGGGLVQAGGSLRLRCAASGRIFNGYGMGWYRQAPGKERELVAAITWSGGGTYYADTVKGRFTISRDNAKNTVYLQRNSLKPEDTAVYYCAAYSSSYPDYDSWGQGTQVTVSS,low polyreactivity
13,QVQLVESGGGLVQAGGSLRLRCAASGRIFRPYTMGWYRQAPGKERELVAGITSSGGGTYYADSVKGRFTISRDNAKNTVYLHMNSLKPEDSAVYYCNRRGWSRTHQYDYWGQGTQVTVSS,high polyreactivity
14,QVQLVESGGGLVQAGGSLRLRCAASGRNFGDNRMGWYRQAPGKERELVTYAYSVKGRFTISRDNAKNTVYLQMNSLKPEDTSVYYCNTDPQRFSGLDENYWGQGTQVTVSS,low polyreactivity
15,QVQLVESGGGLVQAGGSLRLRCAASGRTFARYAMGWYRQAPGKERELVAAISWSGGSTYYADSVKARFTISRDNAKNTVYLQMNSLKPVDTAVYYCAARRPTSPRRYESWGQGTQVTVSS,high polyreactivity
16,QVQLVESGGGLVQAGGSLRLRCAASGRTFELYAMGWYRQAPGKERALVAAITASGGTTYYADSVKGRFTISRDNAKNTVYLQMNSLKPEDTAVYYCAAEYSYYPFTDYDYWGQGTQVSVSS,high polyreactivity
17,QVQLVESGGGLVQAGGSLRLRCAASGRTFGQNAMGLYRQAPGKEREFVAAISSSGGSTYYADSVKGRFTISRDNAKNTVYLQMNSLKPEDTAVYYCNARQYYYRSGAYASRYLYNYWGQGTQVTVSS,high polyreactivity
18,QVQLVESGGGLVQAGGSLRLRCAASGRTFQYNAMGWYRQAPGKESELVAANTSNGGSTYYADSVKGRFTISRDNAKNTVYLQMNSLNPEDTAVYYCAKAYRYVDRGYRLLRYGFWGQGTQVTVSS,high polyreactivity
19,QVQLVESGGGLVQAGGSLRLRCAASGRTFRYYAMGWYRQAPGKEREVVAAITRSGGSTYYADSVKGRFTISRDNAKNTVYLQMNSLKPEDTAVYYCAASRFTSYGIDYDYCGQGTQVTVSS,high polyreactivity
20,QVQLVESGGGLVQAGGSLRLRCAASGRTFYRYAMGWYRQAPGKERELVASINRGGSTNYADSVKGRFTISRDNAKNTVYLQMNSLKPEDTAVYYCACYCYCYWGQGTQVTVSS,low polyreactivity
21,QVQLVESGGGLVQAGGSLRLRCAASGSIFEEYAMGWSRPAPGKERELVAAITSRGGSTYYADSVKGRFTISRDNAKNNVYLQMNSLKPEDTAVYYCAAGVASLTTGSYDYWGQGTQVTVSS,low polyreactivity
22,QVQLVESGGGLVQAGGSLRLRCAASGSIFGPNALGWYRQAAGKERELVAAISSGGSTNYADSVKGRFTISRDNAKNTVYLQMNSLKPEDTAVYYCAKDNYLDPPYFYRFAGYDYRGQGTQVTVSS,low polyreactivity

row,Sequence,polyreactivity (PSR sort gate)
1,QVQLVESGGGLVQAGGSLRLRCAASGSIFQPYAMGWYRQAPGKERELVAAITNGGSTYYADSVKGRFTISRDNATNTVYLQMNSLKPEDTAVYYCAADVQSSHEYDYWGQGTQVTVSS,low polyreactivity
2,QVQLVESGGGLVQAGGSLRLRCAASGSIFQSNAMGWYRPAPGKESELVAAISSSGVRTYYADSVKGRFTISRDNAKNTVYLQMNSLKPEDTAVYYCATGWYYAGGPTYEYYYWGQGTQVTVSS,low polyreactivity
3,QVQLVESGGGLVQAGGSLRLRCAASGSIFSSNAMGWYRQAPGKERELVAAITSGGSTYYADSVKGRFTISRDNAKHTVYLQMNSLKPEDTAVYYCAADDWGDGVYKLDYWGQGTQVTVSS,low polyreactivity
4,QVQLVESGGGLVQAGGSLRLRCAASGSIFTSYALGWYRQAPGKERELVAAINGSGGSTFYADSVKSRFTISRDNAKYTFYLQMNSLKPEDTAVYYCNTGGPRGTTYDFWGLGTQVTVSS,low polyreactivity
5,QVQLVESGGGLVQAGGSLRLRCAASGSIFWRNAMGWYRQAPGKERELVAPISGNGGTTYYADSVKGRFTISRENAKNTVFLQMNSLKPEHTAVYYCPKVGKTYRTYEYWGQGTEVTVSS,high polyreactivity
6,QVQLVESGGGLVQAGGSLRLRCAASGSIFYFYAMGWYRQAPGQEREFVAAITRSGGRTYYADSVKGRFTISRDNAKNTVYLQMNSLKPEDTAVYYCDAVPYDKRKGDYWGQGTQVTVSS,high polyreactivity
7,QVQLVESGGGLVQAGGSLRLRCAASGSIITRYAMGWYRQAPGKERDLVAAITASGGRTYYADSVKGRFTISRDNAKNTVYFQMNSLKPEDTAVYYCNTFWRYTSQLPYDYWGQGTQVNVSS,high polyreactivity
8,QVQLVESGGGLVQAGGSLRLRCAASGSNFVSYAMGSYRQAPGKERELVATITTSTGSTYADSVKGRFTISRDNAKNTVYLLMYSLKPEDTAVYYCAARYLPWLKYDFDSWGQGTQVTVSS,low polyreactivity
9,QVQLVESGGGLVQAGGSLRLRCAASGSTFDGNAMGWYRQAPGKETELVAAITSGGSTNYADSVKGRFTISRDNANNTVYFQMYSLKPEDTAVYYCAAYTVSFSILYDYWGQGTQVTLSS,low polyreactivity
10,QVQLVESGGGLVQAGGSLRLRCAASGSTFGGYAMGWYRQAPGKERELVAAIANGDRTNYADSVKGRFIISRDNAKNTVYLQMNSLKPEDTAVYYCNKDGPSYSSYDNWGQGTQVTVSS,low polyreactivity
11,QVQLVESGGGLVQAGGSLRLRCAASGSTFGYYSMGWYRQAPGKEMELVAAISKSGGRTYYADSVKGRFTISRDTAKNTVYVQMNSLKPEDTAVYYCNKANGGDEVDYWGQGTQVTVSS,high polyreactivity
12,QVQLVESGGGLVQAGGSLRLRCAASGSTFTKNAMGWYRQAPGKERELVAAISFTTGRTYYADSVKGRFTISRDNAKNTVYLQMNSLKPEDTAVYYCNKVYARSEQRGPVAGNYWGQGTQVTVSS,high polyreactivity
13,QVQLVESGGGLVQAGGSLRLRCAASGSTILYYAMGWYRQAPGKERELVADIDWSGDSTYYADSVKRRFRISRDNAKNTVYFQMNSLKPEDTAVYYCAATQYYPVPYDYWGQGTQVTVSS,low polyreactivity
14,QVQLVESGGGLVQAGGSLRLRCAASGSTSAYYAMGWYRQAPGKERELVAAISWSGGRTYSADSVKGRFTISRDNAKNTVYLQMNSLKPEDTAVYYCAARFWFTKGYDYWGQGTQVTVSS,high polyreactivity
15,QVQLVESGGGLVQAGGSLRLRCAASGTTFSDNAMGWYRQAAGKERELVAAITSGGSTYYADSVKGRFTISRDNAKNTVYLQMNSLKPEDTAVYYCAADYWGQGTQVTVSS,low polyreactivity
16,QVQLVESGGGLVQAGGSLRLRCADSGFTLDVYAMGWYRQAPGKERELVAATSRSAGSTYYADSVKGRFTSSRDNAKNTVYLQMNSLKPEETDVYYCGARYPPRFGVVRGYSYYHTSTYSWGQGTQVTVSS,high polyreactivity
17,QVQLVESGGGLVQAGGSLRLRGAASGNTIRYYAMGWYRQAPGKERELVAAINSRGGTTSYADSVKGRFTISRDNAKNTVYLQMNSLKPEDTAVYYCNKYIRYPFKRYGYWGQGTQVTVSS,high polyreactivity
18,QVQLVESGGGLVQAGGSLRLRSAASGRTFVPYHMGCYRQAPGKERELVADISSGDSTNYTDSVKGRFTISRDNAKNTVYLQMNSLKPEDTAVYFCAADLTYTMDHWGLGTQVTVSS,low polyreactivity
19,QVQLVESGGGLVQAGGSLRLRSAATGRTYRLYAMGWYRQAPGKERELVAAITRGGRTNYADSVKGRFTISRDNAKNTVYLEMNSLKPEDTAVYYCAARYRLPIPGTQYEYWGQGTQVTVSS,low polyreactivity
20,QVQLVESGGGLVQAGGSLRLSCAAAGFIFQYNGMGWYRQAPGKERELVAAITSSVNTYYADSVKGRFTISRDNAKNTVYLQMNSLKPEDTAVYYCNADDPDKSWGQGTQVTVSS,low polyreactivity
21,QVQLVESGGGLVQAGGSLRLSCAAAGIIFTGYAMGWYRQAPGKERELVAAITASGGRTYYADSVKGRYTISRDNAKNTVYLQMNSLKPEDTAVYYCNAVPTVLRVLKYDYWGQGTQVTVSS,high polyreactivity
